What was measured:
[1] = target: GST-Rac1 preloaded with GTPγS, P63000
[2] = target: GST-Cdc42Hs preloaded with GTPγS, P60953
[3] = target: GST-RhoA preloaded with GTPγS, P61586
[4] = target: GST-Cdc42Hs preloaded with GDP, P60953
Sequence of GST-Cdc42Hs preloaded with GDP, P60953 (P60953 whole entry, looked up): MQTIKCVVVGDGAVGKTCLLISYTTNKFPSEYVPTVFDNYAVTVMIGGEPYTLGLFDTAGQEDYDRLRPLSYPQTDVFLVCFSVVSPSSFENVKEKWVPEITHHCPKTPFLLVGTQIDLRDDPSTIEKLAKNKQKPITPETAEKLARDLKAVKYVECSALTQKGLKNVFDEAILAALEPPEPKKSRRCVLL

Sequence of GST-Cdc42Hs preloaded with GTPγS, P60953 (P60953 whole entry, looked up): as above
Sequence of GST-RhoA preloaded with GTPγS, P61586 (P61586 whole entry): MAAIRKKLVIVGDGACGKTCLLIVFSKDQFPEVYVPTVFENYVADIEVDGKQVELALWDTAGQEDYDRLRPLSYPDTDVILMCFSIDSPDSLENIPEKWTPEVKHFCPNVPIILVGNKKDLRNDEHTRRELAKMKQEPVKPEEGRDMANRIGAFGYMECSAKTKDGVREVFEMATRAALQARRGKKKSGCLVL

B1: inactive PAK I holoenzyme (p60) purified from rabbit reticulocytes (protein)
chain: SDNGELEDKPPAPPVRMSSTIFSTGGKDPLSANHSLKPLPSVPEEKKPRNKIISIFSGTEKGSKKKEKERPEISPPSDFEHTIHVGFDAVTGEFTGMPEQWARLLQTSNITKLEQKKNPQAVLDVLKFYDSNTVKQKYLSFTPPEKDGFPSGAPALNTKVSETSAVVTEEDDDDEEAAPPVIAPRPDHTKSIYTRSVIDPIPAPVGDSHVDSGAKSSDKQKKKTKMTDEEIMEKLRTIVSIGDPKKKYTRYEKIGQGASGTVFTATDVALGQEVAIKQINLQKQPKKELIINEILVMKELKNPNIVNFLDSYLVGDELFVVMEYLAGGSLTDVVTETCMDEAQIAAVCRECLQALEFLHANQVIHRDIKSDNVLLGMEGSVKLTDFGFCAQITPEQSKRSTMVGTPYWMAPEVVTRKAYGPKVDIWSLGIMAIEMVEGEPPYLNENPLRALYLIATNGTPELQNPEKLSPIFRDFLNRCLEMDVEKRGSAKELLQHPFLKLAKPLSSLTPLIMAAKEAMKSNR
autophosphorylation of PAK I (autoradiography, time course) [1]: a slight stimulation of autophosphorylation over the basal level was observed over a 15-min period of incubation
autophosphorylation of PAK I (autoradiography, time course) [2]: Stimulation of autophosphorylation upon addition of GST-Cdc42Hs was observed within 5 min
increased autophosphorylation of PAK I [2]: 0.97 mol/mol
stimulation of the rate of phosphorylation of H4 [2]: 18,261 pmol/min/mg
autophosphorylation and activity (phosphorylation of H4) [3]: had no stimulatory effect on either autophosphorylation or activity
autophosphorylation of PAK I (autoradiography, time course) [3]: GST-RhoA had little effect
activity (phosphorylation of H4) [4]: 2,154 pmol/min/mg
autophosphorylation and H4 activity relative to Cdc42Hs(GTPγS) [4]: approximately 8-fold lower than those observed with Cdc42Hs(GTPγS)
stimulation of autophosphorylation [4]: 0.12 mol/mol

From patent US20020086390
